Positions count from the first letter of the chain named. Values belong to the binder of their own block, whether it stands above or below them.
Assays:
[1] = biological target: T1, human EpCAM-Fc (human, UniProt P16422 24-265); assay: ELISA, plate coated with human EpCAM-Fc at 1 µg/ml, goat anti-human kappa-HRP, ABTS, Abs 405 nm
T1 construct: extracellular domain; also called human EpCAM/Fc fusion; recombinant human EpCAM antigen; not shown: human Fc region from IgG1; limits not readable
T1 sequence (looked up): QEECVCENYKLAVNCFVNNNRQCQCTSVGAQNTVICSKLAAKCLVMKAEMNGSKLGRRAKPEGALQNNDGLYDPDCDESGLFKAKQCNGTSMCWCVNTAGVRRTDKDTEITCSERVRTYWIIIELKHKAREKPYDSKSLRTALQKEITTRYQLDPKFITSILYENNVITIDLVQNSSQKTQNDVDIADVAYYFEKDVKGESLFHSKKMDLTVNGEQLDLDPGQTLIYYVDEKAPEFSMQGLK
Procedure: (§1) For ELISA of antibodies in IgG format, the MAXI-sorb plate was coated with 1 μg/ml (100 μl per well) of human or cynomolgus EpCAM-Fc in PBS overnight at 4° C. The plates were blocked with 3% BSA in PBS for 2 hrs. The IgGs to be tested were added in 2-fold dilutions from 133 nM to 32 fM and incubated for 1 hr at room temperature. For detection of bound IgG, a goat anti-human kappa-HRP antibody (Southern Biotech, cat no 2060-05) was added in 1:5000 dilution in block solution and incubated for 1 hr at room temperature.
(§2) The ELISA of antibodies in IgG format was developed using a 1-step ABTS Kit (Thermo Scientific prod #37615) and a 25 min incubation time. The absorbance was measured on a SLT SPECTRA plate reader. The software Prism (GraphPad, San Diego, Calif.) was used to estimate the affinities using a non-linear fit of one-site model on the retrieved ELISA data.

[2] = biological target: T2, cynomolgus EpCAM-Fc (cynomolgus; human, UniProt P01857 99-330 = IgG part); assay: ELISA, plate coated with cynomolgus EpCAM-Fc at 1 µg/ml, goat anti-human kappa-HRP, ABTS, Abs 405 nm
T2 construct: also called Cynomolgus EpCAM/Fc fusion; recombinant cynomolgus EpCAM antigen
Procedure: as §1, §2

[3] = biological target: T3, EpCAM on the surface of EpCAM-positive tumor cell lines (UniProt P16422 24-314, limits assumed); assay: cell-based or functional assay
T3 sequence (looked up): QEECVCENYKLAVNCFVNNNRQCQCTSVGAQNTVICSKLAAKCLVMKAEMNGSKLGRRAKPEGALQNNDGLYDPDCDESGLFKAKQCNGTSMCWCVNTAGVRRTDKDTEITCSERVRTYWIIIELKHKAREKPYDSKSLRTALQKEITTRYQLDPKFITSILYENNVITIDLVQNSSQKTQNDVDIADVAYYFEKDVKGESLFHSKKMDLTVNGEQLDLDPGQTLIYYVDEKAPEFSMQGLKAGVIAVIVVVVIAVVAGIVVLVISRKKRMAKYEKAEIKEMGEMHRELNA

[4] = biological target: T3, EpCAM on the surface of EpCAM-positive …; assay: flow cytometry on Kato III cells, RPE goat anti-human IgG detection, median fluorescence intensity
Procedure: Flow cytometric analysis was performed to analyze binding of the 3-17I IgG to EpCAM-positive cells. As positive controls, anti-EpCAM chimeric (mouse variable/human constant domains) and fully human antibodies, MOC31 and MT201, respectively, were used.
The anti-green fluorescent protein (GFP) antibody was used as a negative control. For flow cytometry, Kato III cells (ATCC number (gastric carcinoma, ATCC number HTB-103)) were grown under standard conditions, harvested from the culture flasks, washed 2 times with PBS, re-suspended in PBS with 0.2% BSA and 0.09% NaN₃ and finally distributed at 1×10⁵ cells per well into V-shaped 96-well plates (Greiner Bio-One, Frickenhausen, Germany). Cells were centrifuged at 400×g for 5 min and then incubated at 4° C. for 45 min with 50 μL of each different antibody dilution (all dilutions made in PBS with 0.2% BSA and 0.09% NaN₃). After washing in PBS with 0.2% BSA and 0.09% NaN₃, the cells were stained with 10 μg/mL of RPE-conjugated goat anti-human IgG (AbDSerotec, Düsseldorf, Germany) for 30 min at 4° C. The stained cells were washed, re-suspended in 200 μL PBS with 0.2% BSA and 0.09% NaN₃ and transferred to a U-shaped 96-well plate (Corning, Schiphol-Rijk, The Netherlands) for analysis on EasyCyte flow cytometer (Guava Technologies, Hayward, Calif., USA).

[5] = biological target: T1, human EpCAM-Fc; assay: SPR, BIAcore T100, EpCAM-Fc coupled to CM5 chip (100 RU), 37 °C, 1:1 Langmuir model; SPR (BIAcore T100), 37 C, native EpCAM-Fc on the CM5 chip
Procedure: Binding of 3-17I to human and cynomolgus monkey EpCAM was analyzed using surface plasmon resonance (SPR) on a BIAcore T100 (BIAcore, Inc, Piscataway, N.J.). The extracellular domains of human or cynomolgus monkey EpCAM fused to human Fc (IgG1), were coupled to a CM5 chip (BIAcore, Inc, Piscataway, N.J.) at density of 100 RU. The SPR studies were performed using standard techniques at 37° C. with a flow rate of 50 μl/min. The data were analyzed using the 1:1 Langmuir binding model of the BIAcore software.

[6] = biological target: T1, human EpCAM-Fc; assay: ELISA, plate coated with human EpCAM-Fc at 5 µg/ml, scFv detected with mouse anti-cMyc 9E10 and rabbit anti-mouse-HRP, TMB, Abs 450 nm
Procedure: FIGS. 10A and 10B show ELISA binding analysis of 3-17I scFv, 7-F17 scFv, 17-C20 scFv and 24-G6 scFv to human EpCAM-Fc (FIG. 10A) and to cynomolgus EpCAM-Fc (FIG. 10B). MAXI-Sorb plates were coated with human or cynomolgus EpCAM-Fc at a concentration of 5 μg/ml. The antibody was added in 2-fold dilutions from 667 nM to 3.2 nM.
For ELISA of antibodies in scFv format, the MAXI-sorb plate was coated with 5 μg/ml (100 μl per well) of human or cynomolgus EpCAM-Fc in PBS overnight at 4° C. The plates were blocked with 4% skimmed milk (Merck product no 1.15363.0500) in PBS for 2 hrs. […] For detection of bound scFv, a rabbit anti-mouse-HRP antibody (Dako, cat no P0260) was added in 1:3000 dilution in block solution and incubated for 1 hr at room temperature.

T2 sequence (P01857 other isoform, or with tags, fused parts or gaps limits assumed, form in doubt): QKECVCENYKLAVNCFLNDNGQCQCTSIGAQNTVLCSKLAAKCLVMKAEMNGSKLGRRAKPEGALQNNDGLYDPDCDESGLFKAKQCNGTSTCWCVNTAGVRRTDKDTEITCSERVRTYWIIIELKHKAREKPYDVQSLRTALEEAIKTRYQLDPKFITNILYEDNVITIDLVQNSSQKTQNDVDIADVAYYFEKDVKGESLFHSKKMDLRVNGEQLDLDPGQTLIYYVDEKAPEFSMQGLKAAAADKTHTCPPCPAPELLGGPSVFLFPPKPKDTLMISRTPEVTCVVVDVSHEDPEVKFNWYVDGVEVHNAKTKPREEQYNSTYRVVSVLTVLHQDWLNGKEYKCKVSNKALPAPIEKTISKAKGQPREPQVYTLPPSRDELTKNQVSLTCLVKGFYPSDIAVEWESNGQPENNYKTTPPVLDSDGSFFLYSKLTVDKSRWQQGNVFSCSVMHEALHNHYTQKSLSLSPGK

B1: 17-C20 IgG (antibody, V domains shown)
VH: QVQLVQSGAEVKKPGSSVKVSCKASGGTFSSYAISWVRQAPGQGLEWMGGIIPIFGTANYAQKFQGRVTITADESTSTAYMELSSLRSEDTAVYYCARGLLWNYWGQGTLVTVSS
VL: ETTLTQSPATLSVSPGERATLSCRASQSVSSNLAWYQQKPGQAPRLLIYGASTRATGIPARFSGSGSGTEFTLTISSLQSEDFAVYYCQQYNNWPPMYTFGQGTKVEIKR
notes: also called 17-C20 full length IgG
binding result [1]: binds

B2: 16-G5 IgG (antibody, V domains shown)
VH: B1 VH
VL: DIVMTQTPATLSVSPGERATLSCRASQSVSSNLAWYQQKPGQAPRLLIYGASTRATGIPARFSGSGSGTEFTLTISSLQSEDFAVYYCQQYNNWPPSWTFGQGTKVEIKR
notes: also called 16-G5 full length IgG
binding result [1]: binds

B4: 12-C15 IgG (antibody, V domains shown)
VH: B1 VH
VL: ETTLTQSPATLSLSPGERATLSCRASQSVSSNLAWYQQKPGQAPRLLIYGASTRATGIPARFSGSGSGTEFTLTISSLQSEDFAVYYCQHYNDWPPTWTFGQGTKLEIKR
notes: also called 12-C15 full length IgG
binding result [1]: binds

B5: 7-F17 scFv (scFv)
scFv: QVQLVQSGAEVKKPGSSVKVSCKASGGTFSSYAISWVRQAPGQGLEWMGGIIPIFGTANYAQKFQGRVTITADESTSTAYMELSSLRSEDTAVYYCARGLLWNYWGQGTLVTVSSKLSGSASAPKLEEGEFSEARVETTLTQSPATLSVSPGERATLSCRASQSVSSNLAWYQQKPGQAPRLLIYGASTRATGIPARFSGSGSGTEFTLTISSLQSEDFAVYYCQQYNNWPPGFTFGPGTKVDIK
binding result [6]: binds

B7: 24-G6 scFv (scFv)
scFv: B5 scFv with Q226K, G233A
binding result [6]: binds

B9: 3-17I scFv (scFv)
scFv: QVQLVQSGAEVKKPGSSVKVSCKASGGTFSSYAISWVRQAPGQGLEWMGGIIPIFGTANYAQKFQGRVTITADESTSTAYMELSSLRSEDTAVYYCARGLLWNYWGQGTLVTVSSKLSGSASAPKLEEGEFSEARVEIVMTQSPATLSVSPGERATLSCRASQSVSSNLAWYQQKPGQAPRLIIYGASTTASGIPARFSASGSGTDFTLTISSLQSEDFAVYYCQQYNNWPPAYTFGQGTKLEIK
notes: expressed in E. coli TG1 from pHOG21; also called scFv format of 3-17I; not shown: C-terminal c-myc and His6 tags from pHOG21, with their junction residues
binding result [6]: binds

Results, then the binder that gave them:

EC50 (read off the curve) [1]: ~0.7 nM
EC50 (read off the curve) [2]: ~0.6 nM
ADCC EC50, BT-474 cells, human PBMC, E:T 20:1 [3]: 0.12 ng/mL
ADCC EC50, MDA-MB-231 cells, human PBMC, E:T 20:1 [3]: 15 ng/mL
ADCC EC50, MDA-MB-453 cells, human PBMC, E:T 20:1 [3]: 0.08 ng/mL
CDC EC50, KATO III cells, human serum [3]: 0.28 ng/mL
CDC EC50, MT-3 cells, human serum [3]: 0.38 ng/mL
EC50 (read off the curve) [4]: ~0.1 µg/mL
Kd [5]: 1 nM
koff [5]: 0.03 s⁻¹
kon [5]: 3e+07 M⁻¹ s⁻¹
B3: 3-17I IgG (antibody, V domains shown)
VH: B1 VH
VL: EIVMTQSPATLSVSPGERATLSCRASQSVSSNLAWYQQKPGQAPRLIIYGASTTASGIPARFSASGSGTDFTLTISSLQSEDFAVYYCQQYNNWPPAYTFGQGTKLEIKR
notes: also called 3-17I full length IgG

binding result [6]: binds
B6: 17-C20 scFv (scFv)
scFv: B5 scFv with G233M, F234Y, P238Q, D243E

ADCC EC50, BT-474 cells, human PBMC, E:T 20:1 [3]: 382 ng/mL
ADCC EC50, MDA-MB-453 cells, human PBMC, E:T 20:1 [3]: 7 ng/mL
CDC EC50, KATO III cells, human serum [3]: 76 ng/mL
CDC EC50, MT-3 cells, human serum [3]: 89 ng/mL
CDC: fold higher antibody concentration needed than for 3-17I IgG (ratio of the EC50 values; KATO III and MT-3 cells, human serum) [3]: 250 fold
B8: MT201 IgG (antibody, V domains shown)
VH: EVQLLESGGGVVQPGRSLRLSCAASGFTFSSYGMHWVRQAPGKGLEWVAVISYDGSNKYYADSVKGRFTISRDNSKNTLYLQMNSLRAEDTAVYYCAKDMGWGSGWRPYYYYGMDVWGQGTTVTVSS
VL: ELQMTQSPSSLSASVGDRVTITCRTSQSISSYLNWYQQKPGQPPKLLIYWASTRESGVPDRFSGSGSGTDFTLTISSLQPEDSATYYCQQSYDIPYTFGQGTKLEIK

EC50 (read off the curve) [1]: ~1 nM
EC50 (read off the curve) [4]: ~0.3 µg/mL
B10: MOC31 IgG (antibody, V domains shown)
VH: QVKLQQSGPELKKPGETVKISCKASGYTFTNYGMNWVKQAPGKGLKWMGWINTYTGESTYADDFKGRFAFSLETSASAAYLQINNLKNEDTATYFCARFAIKGDYWGQGTTVTVSS
VL: DIVLTQSPFSNPVTLGTSASISCRSTKSLLHSNGITYLYWYLQKPGQSPQLLIYQMSNLASGVPDRFSSSGSGTDFTLRISRVEAEDVGVYYCAQNLEIPRTFGGGTKLEIK
